From patent publication US20260008830A1
Values belong to the substance of their own block, whether it stands above or below them.

Experiments:
Experiment in all cases: cell-based or functional assay
[1] = molecular target: T1, IFN-gamma receptor on HEK-Dual cells (Human IFN-γ SEAP/Luciferase Reporter Cells, hkd-ifng)
T1 sequence (P15260 whole entry, looked up): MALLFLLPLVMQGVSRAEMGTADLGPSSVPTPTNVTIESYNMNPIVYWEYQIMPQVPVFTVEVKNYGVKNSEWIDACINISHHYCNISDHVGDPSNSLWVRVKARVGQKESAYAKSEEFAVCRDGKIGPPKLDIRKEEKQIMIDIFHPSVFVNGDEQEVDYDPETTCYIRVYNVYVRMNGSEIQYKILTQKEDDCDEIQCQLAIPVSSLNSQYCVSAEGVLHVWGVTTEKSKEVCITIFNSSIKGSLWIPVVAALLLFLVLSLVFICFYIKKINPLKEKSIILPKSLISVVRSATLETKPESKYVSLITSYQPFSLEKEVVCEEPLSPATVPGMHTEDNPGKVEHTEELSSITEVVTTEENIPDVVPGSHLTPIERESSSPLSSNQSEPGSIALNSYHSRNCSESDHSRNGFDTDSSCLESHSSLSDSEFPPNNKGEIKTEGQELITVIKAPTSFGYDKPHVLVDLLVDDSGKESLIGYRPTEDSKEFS
T1 sequence (P38484 whole entry, looked up): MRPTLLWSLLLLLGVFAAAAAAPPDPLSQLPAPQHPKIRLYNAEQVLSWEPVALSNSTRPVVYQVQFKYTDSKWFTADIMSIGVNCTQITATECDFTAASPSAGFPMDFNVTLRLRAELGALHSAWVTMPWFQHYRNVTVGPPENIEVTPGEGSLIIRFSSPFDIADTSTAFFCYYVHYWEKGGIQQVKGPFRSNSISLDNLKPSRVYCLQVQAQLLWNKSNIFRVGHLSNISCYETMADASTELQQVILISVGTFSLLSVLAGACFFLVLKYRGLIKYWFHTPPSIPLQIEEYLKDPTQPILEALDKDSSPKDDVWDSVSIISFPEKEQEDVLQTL

[2] = molecular target: T2, IL-10 receptors R1 and R2 on HEK-Blue IL-10 reporter cells (UniProt Q13651)
T2 sequence (looked up) 1: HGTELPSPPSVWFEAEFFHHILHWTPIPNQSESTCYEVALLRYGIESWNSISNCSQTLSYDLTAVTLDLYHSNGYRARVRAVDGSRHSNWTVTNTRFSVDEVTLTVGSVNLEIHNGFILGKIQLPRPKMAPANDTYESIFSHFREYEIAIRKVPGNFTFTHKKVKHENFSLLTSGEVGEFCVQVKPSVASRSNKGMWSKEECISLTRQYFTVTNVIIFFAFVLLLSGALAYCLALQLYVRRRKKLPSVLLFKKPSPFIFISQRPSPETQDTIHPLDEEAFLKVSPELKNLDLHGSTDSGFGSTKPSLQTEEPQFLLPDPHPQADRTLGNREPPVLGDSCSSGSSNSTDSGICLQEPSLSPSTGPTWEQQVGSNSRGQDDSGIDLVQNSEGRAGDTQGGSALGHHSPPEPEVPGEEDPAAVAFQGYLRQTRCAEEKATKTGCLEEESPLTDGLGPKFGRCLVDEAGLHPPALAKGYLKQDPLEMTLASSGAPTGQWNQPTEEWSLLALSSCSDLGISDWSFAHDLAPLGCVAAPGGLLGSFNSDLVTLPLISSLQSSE
T2 sequence (looked up) 2: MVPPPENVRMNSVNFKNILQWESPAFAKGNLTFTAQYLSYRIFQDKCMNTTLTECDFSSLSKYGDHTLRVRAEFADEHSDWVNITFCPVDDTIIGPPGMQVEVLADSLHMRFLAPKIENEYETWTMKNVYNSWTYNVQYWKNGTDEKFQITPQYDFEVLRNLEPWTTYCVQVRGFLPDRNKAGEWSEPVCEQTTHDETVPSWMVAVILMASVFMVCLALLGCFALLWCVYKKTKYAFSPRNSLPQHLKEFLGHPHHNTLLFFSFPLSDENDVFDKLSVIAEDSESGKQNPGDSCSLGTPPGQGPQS

[3] = molecular target: IL-22 receptors R1 and R2 on HEK-Blue IL-22 reporter cells (UniProt Q8N6P7)
Chain of IL-22 receptors R1 and R2 on HEK-Blue IL-22 reporter cells (Q8N6P7 16-574 limits assumed): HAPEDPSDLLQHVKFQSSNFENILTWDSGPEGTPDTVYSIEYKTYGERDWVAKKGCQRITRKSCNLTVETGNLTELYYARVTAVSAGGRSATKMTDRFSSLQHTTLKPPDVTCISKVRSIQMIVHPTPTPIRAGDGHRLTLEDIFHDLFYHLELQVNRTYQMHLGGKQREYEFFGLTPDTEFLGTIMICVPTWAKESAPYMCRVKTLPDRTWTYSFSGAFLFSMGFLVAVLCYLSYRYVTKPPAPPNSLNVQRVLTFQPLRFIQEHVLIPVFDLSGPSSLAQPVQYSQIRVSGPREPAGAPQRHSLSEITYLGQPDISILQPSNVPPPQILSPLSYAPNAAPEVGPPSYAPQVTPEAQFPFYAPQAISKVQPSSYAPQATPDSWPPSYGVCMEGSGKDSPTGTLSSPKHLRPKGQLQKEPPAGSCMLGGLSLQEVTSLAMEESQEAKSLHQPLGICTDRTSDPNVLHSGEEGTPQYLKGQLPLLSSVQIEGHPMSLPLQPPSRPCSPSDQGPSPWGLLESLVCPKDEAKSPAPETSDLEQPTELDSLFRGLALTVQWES

[4] = molecular target: IL-10 receptors R1 and R2 on HEK-Blue IL-10 reporter cells (UniProt Q13651); remark: listed apart in the source

Chain of IL-10 ORF (WT human IL-10 expressed and secreted by M. pneumoniae) (P22301 other isoform, or with tags, fused parts or gaps limits assumed): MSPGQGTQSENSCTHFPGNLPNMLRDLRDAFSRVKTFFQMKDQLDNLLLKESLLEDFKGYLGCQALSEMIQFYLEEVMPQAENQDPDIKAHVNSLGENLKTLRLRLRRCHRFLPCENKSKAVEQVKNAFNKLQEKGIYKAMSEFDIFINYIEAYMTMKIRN
Chain of IFNg WT (crystallised version of IFNg of PDB 6e3k) (P01579 other isoform, or with tags, fused parts or gaps limits assumed): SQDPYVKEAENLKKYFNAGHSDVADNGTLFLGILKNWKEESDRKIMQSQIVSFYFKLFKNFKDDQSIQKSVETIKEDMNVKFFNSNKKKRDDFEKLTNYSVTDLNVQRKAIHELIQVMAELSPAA

EC50 (HEK Dual cells responding to IFNγ) [1]: 86.6 pM
Substance: IFNg WT (crystallised version of IFNg of PDB 6e3k) (from UniProt P01579 24-147) (ligand)

Apparent Kd (M) average (HEK-Blue IL-10 SEAP reporter, absorbance 630 nm, saturation binding fit) [2]: 1.98e-10 M | Fold change-apparentKD (against IL-10 ORF) [2]: 1 fold
Substance: IL-10 ORF (WT human IL-10 expressed and secreted by M. pneumoniae) (from UniProt P22301 19-178) (ligand)

app KD (HEK-Blue IL-22 reporter) [3]: 128 pM
Substance: WT22 (IL-22 WT used as reference for the interface mutants) (from UniProt Q9GZX6 34-179) (ligand)

Apparent Kd (M) average (HEK-Blue IL-10 SEAP reporter, absorbance 630 nm, saturation binding fit) [4]: 4.61e-10 M | Fold change-apparentKD (against IL-10 ORF) [4]: 0.43 fold
Substance: hIL-10r (commercial recombinant human IL-10, #200-10, Peprotech) (from UniProt P22301 19-178) (ligand)
